These are literature values, as cited in patent US20240238439A1, “HER3-BINDING ANTIBODY-DRUG CONJUGATE” (Hummingbird Bioscience Pte. Ltd., priority 2023, published 2024).

In one data set the target is human HER3 (Homo sapiens, UniProt P21860).
Data set [1] has as its system HER3 overexpressing cells.
A further data set has as its system cancer cells. Conditions: in vitro.
For data set [2] the following is noted: Differential Scanning Fluorimetry.
Data set [3] deals with human cancer cell line-derived xenograft tumors. Conditions: in vivo.
Data set [4] has as its target interaction between HER3 and HER2 (Homo sapiens, UniProt P21860). To be noted: dose-dependent.
Data set [5] concerns xenograft tumors derived from a human cancer cell line harbouring an NRG gene fusion.
Data set [6] has as its system HER3-mediated signalling in HER3-expressing human cancer cell line-derived xenograft tumors. Conditions: in vivo.
Data set [7] has as its system HER3-mediated signalling in cells of HER3-expressing cancer cell lines. Conditions: in vitro.
In data set [8] the target is interaction between HER3 and EGFR (Homo sapiens, UniProt P21860).
Data set [9] deals with thyroid cancer cell lines harbouring the V600E BRAF mutation.

B1: 10D1F hIgG1: HER3-binding antibody clone 10D1F (VH SEQ ID NO:33, VL SEQ ID NO:58) in human IgG1/Vκ format (antibody, V domains shown)
VH: QVQLQESGPGLVKPSQTLSLTCTVSGYSITSGYSWHWIRQHPGKGLEWIGSIRYSGGTDYNPSLKSLVTISADTSKNQFSLKLSSVTAADTAVYYCARMTTAPWYPFDYWGQGTTVTVSS
VL: DIQMTQSPSSVSASVGDRVTITCKASQIVGSNVAWYQQKPGKAPEPLIYSASYLYSGVPSRFSGSGSGTDFTLTISSLQPEDFATYYCQQYSSHPLTFGQGTKLEIK
Consider B1, for which, in the data set with human HER3, the “binding to human HER3” value was “high affinity and specificity”; the “cross-reactivity with other human EGFR family members” value was “no cross-reactivity”; the “ligand dependence of binding to HER3” value is listed as “ligand (NRG)-independent”. For the same molecule, the “affinity of binding to human HER3” value with human HER3 (in the presence or absence of human NRG1) is listed as “subpicomolar”. Moreover, the ADCC activity result in data set [1] was “induces ADCC activity against HER3 overexpressing cells in a dose-dependent manner”. For the same molecule, in the data set with cancer cells, the “growth of cancer cells” value is reported as “potently inhibits the growth of cancer cells in vitro”. Moreover, the melting temperature in [2] was 70.0 °C. The “growth of xenograft tumors” value in data set [3] is given as “potently inhibits growth of human cancer cell line-derived xenograft tumors in vivo”. Also, in data set [4], the “inhibition of interaction between HER3 and HER2” value is given as “highly potent”. In addition, in data set [5], the “growth of xenograft tumors” value is given as “extremely potent at inhibiting growth”. For the same molecule, in the data set with cyno, mouse and rat HER3, the “binding to cyno, mouse and rat HER3” value was “high-affinity binding”. In addition, the HER3-mediated signalling result in [6] is reported as “inhibits HER3-mediated signalling”. Also, the HER3-mediated signalling result in [7] is “inhibits HER3-mediated signalling”. Further, the “inhibition of interaction between HER3 and EGFR” value in data set [8] is “inhibits interaction between HER3 and EGFR in a dose-dependent fashion”. Moreover, the in vitro proliferation result in data set [9] was “inhibits in vitro proliferation”.
